# Measured values taken from IntAct's records for PubMed 36127429.
# B1: Protein SHMOOSE (Homo sapiens), C0HM83 (parent)
# chain: MPPCLTTWLSQLLKDNSYPLVLGPKNFGATPNKSNNHAHYYNHPNPDFPNSPHPYHPR
# partner: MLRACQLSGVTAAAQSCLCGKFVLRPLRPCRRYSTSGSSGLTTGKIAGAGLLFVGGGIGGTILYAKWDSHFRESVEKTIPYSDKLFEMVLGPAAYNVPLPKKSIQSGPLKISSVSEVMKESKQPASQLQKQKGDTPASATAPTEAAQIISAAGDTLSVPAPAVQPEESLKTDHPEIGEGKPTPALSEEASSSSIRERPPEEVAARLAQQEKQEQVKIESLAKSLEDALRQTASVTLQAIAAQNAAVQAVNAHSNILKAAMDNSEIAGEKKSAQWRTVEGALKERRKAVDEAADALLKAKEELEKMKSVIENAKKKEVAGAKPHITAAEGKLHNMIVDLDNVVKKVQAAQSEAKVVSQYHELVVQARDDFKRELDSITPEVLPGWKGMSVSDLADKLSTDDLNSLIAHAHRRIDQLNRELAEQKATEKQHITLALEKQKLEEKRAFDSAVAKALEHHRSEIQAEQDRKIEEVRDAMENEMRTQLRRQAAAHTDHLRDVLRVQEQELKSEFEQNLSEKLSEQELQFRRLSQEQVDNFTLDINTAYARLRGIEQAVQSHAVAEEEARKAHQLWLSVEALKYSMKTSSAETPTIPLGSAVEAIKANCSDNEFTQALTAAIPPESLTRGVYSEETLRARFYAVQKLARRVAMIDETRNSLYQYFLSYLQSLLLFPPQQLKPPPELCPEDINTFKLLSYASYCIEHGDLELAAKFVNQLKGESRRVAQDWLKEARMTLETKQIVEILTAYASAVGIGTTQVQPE
# Variants of: B1
# Settings: with mic60_human IMMT
row,Variant,effect of a mutation on the interaction
1,D47N,with no effect
